Measurements from US20170306013A1 (KYMAB, published 2017).

T1: KP1.2 peptide of the D2E2 loop of the Nav1.7 channel (human, not fully specified)
T1 construct: also called human NAV1.7 peptide
T1 peptide: H-VELFLADVEGC-NH2


Biological target: T1, KP1.2 peptide of the D2E2 loop of the …
Test: DELFIA: KP1.2 peptide on streptavidin plate, purified antibody undiluted, Eu-labelled anti-human IgG, time-resolved fluorescence at 615 nm
Description: Four mice were immunised substantially as detailed in Table 6. The immunisations of Boost 6 each used 3 μg of KP1.2-KLH and 3 μg KP5.1-KLH, adjuvanted with IFA, CpG and Alum as set out in Table 6. A seventh booster immunisation was added, which consisted of 2 μg of KP1.2-KLH and 2 μg KP5.1-KLH, adjuvanted with IFA, CpG and Alum as set out in Table 6. Antibodies were isolated from these mice. 17 antibodies were identified using B-cell cloning technique as described above with labelled KP1.2 peptide (SEQ ID No:10). These 17 antibodies were further tested for binding to human NAV1.7 peptide using a DELFIA assay.
Streptavidin Even Coat 96 well plates (R&D Systems) were coated with 50 μL of 4 μg/ml KP1.2 peptide (SEQ ID No:10, synthesised by Mimotopes) diluted in 1×PBS (Sigma) for 1 hr at room temperature (RT). Plates were then washed 3× with 1×PBS+0.1% tween (200 μL/well). Plates were blocked with 200 μL PBS+1% BSA (Sigma) for 1 hr at RT. Plates were then washed again 3× with 1×PBS+0.1% tween (Sigma) (200 μL/well). Purified antibodies were then added non-diluted to washed plate and incubated for 1 hr at RT (50 μL/well). Plates were then washed 3× with 1×PBS+0.1% tween (200 μL/well). 50 μL/well of Dissociation-Enhanced Lanthanide Fluorescent Immunoassay (DELFIA) Europium-labelled Anti-Human IgG antibody (Perkin Elmer) diluted 1:500 in DELFIA assay buffer (Perkin Elmer) for 1 hr at RT. Plates were then washed 3× with DELFIA wash buffer (Perkin Elmer) (200 μL/well). 50 μL/well of DELFIA Enhancement Solution (Perkin Elmer, warmed to RT before use) was added to each well and incubated for 5 min at RT on shaker (Heidolph Titramax). […] Values were plotted using Prism (Graph Pad Prism).

Row | Binder | binding result
1 | 25A01 (antibody, V domains shown, Detected with anti-human IgG) VH: QVQLVQSEAEVKKPGASVKVSCKASGYIFTTFGLSWVRQAPGQGLEWMGRITTNNGNTIYERRFQGRVTMTIDTSTTTAYMEMRSLTSDDTAVYYCARDGAPQDHWGQGTLVTVSS VL: DIQMTQSPSSLSVSVGDRVIITCRASQDIRNSLAWFQQKPGKAPKSLIFAASSLQSGVPSKFRGSGFGTDFTLTITSLQPEDFATYYCQQYSSYPLTFGGGTKVEIK | binds
2 | 25F08 (antibody, V domains shown, Detected with anti-human IgG) VH: QVQLVQSGPEVKKPGASVKVSCQASGYTFTTYGINWVRQAPGQGLEWMGRISAYNGNTNYAQKFQGRVTMTTDTSTRTAYMEMSNLISDDTAVYYCARDGAPQDHWGQGTLITVSS VL: DIQMTQSPSSLSVSVGDRITITCRASQDISNSLAWFQQKPGKAPKSLIFAASSLQSGVPSKFSGSGSGTDFNFTISSLQPEDFATYYCQQYNSFPLTFGGGTKVEIK | binds
3 | 22G09 (antibody, V domains shown, Detected with anti-human IgG) VH: QVQLVQSGAEVRKPGASVKVSCKASGYTFTDYAIHWVRQAPGQRLEWMGWIIVGNGKTRYSQKFQGRVTITWETSATTAYMDLSSLRSEDTAVYYCARGFTMVRGAPYYDGMDVWGQGTTVTVSS VL: DIVMTQSPLSLPVTPGEPASISCRSSQSLLYTTGYNYLDWYLQKPGLSPQLLIYLGSYRASGVPDRFTGSGSGTDFTLKISRVEAEDVGVYYCMQALQAPTFGGGTKLEIK | binds
4 | 28B08 (antibody, V domains shown, Detected with anti-human IgG; also called 28608) VH: QVQLVQSGAEVRKPGASVKVSCKASGYTFTDYALHWVRQAPGQRLEWMGWIIVGNGKTRYAQKFQGRVTITWETSASTAFVDLNSLRSEDTAVYYCARGFTMVRGAPYYDGLDVWGQGTTVTVSS VL: DIVMTQSPLSLSVTPGEPASISCRSSQSLLYSTGYNYLDWYLQKPGLSPQLLIYLGSNRASGVPDRFSGSGSGTDFTLKISRVEAEDVGFYYCMQALQAPTFGGGTKVEIK | binds
5 | 28C11 (antibody, V domains shown, Detected with anti-human IgG) VH: QVQLVQSGAEVRKPGASVKVSCKASGYTFTDYAIHWVRQAPGQRLEWMGWIIVGNGKTRYAQKFQGRVTITWETSASTAYMDLSSLRSEDTAVYYCARGFTMVRGAPYYDGLDVWGQGTTVTVSS VL: DIVMTQSPLSLPVTPGEPASISCRSSQSLLFSTGYNYLDWYLQKPGLSPQLLIYLGSNRASGVPDRFSGSGSGTDFTLKISRVEAEDVGVYYCMQALQTPTFGGGTKVEIK | binds
6 | 32B04 (antibody, V domains shown, Detected with anti-human IgG; also called 32604) VH: QVQFVQSGAEVRKPGASVKVSCKASGYTFTDYAIHWVRQAPGQRLEWMGWIIVGNGKTRYSQKFQGRLTITWETSATTAYMDLSSLRSEDTAVYYCARGFTMVRGAPYYDGMDVWGQGTTVTVSS VL: DIVMTQSPLSLPVTPGEPASISCRSSQSLLYTTGYNYLDWYLQKPGLSPQLLIYLGSYRASGVPDRFTGSGSGTDFTLKISRVEAEDVGVYYCMQALQAPTFGGGTKLEIK | binds
7 | 32D04 (antibody, V domains shown, Detected with anti-human IgG) VH: QVQLVQSGPEVRNPGASVRVSCKASGYTFTDYALHWVRQAPGQRLEWMGWIIVGNGKTRYAQKFQGRVTITWETSASTAFMDLSSLRSEDTAVYYCARGFTMVRGAPYYDGLDVWGQGTTVTISS VL: DIVMTQSPLSLPVSPGEPASISCRSSQSLLYSTGYNYLDWYLQKPGLSPQLLIYLGSIRASGVPDRFSGSGSGTDFTLSISRVEAEDVGIYYCMQALQTPTFGGGTKVEIK | binds
8 | 35A06 (antibody, V domains shown, Detected with anti-human IgG) VH: QVQLVQSGAEVRKPGASVKVSCKASGYTFTDYALHWVRQAPGQRLEWMGWIIVGNGKTRYAQKFQGRVTITWETSASTAFMDLSSLRSEDTAVYYCARGFTMVRGAPYYDGLDVWGQGTTVTVSS VL: DIVMTQSPLSLPVTPGEPASISCRSSQSLLYSTGYNYLDWYLQKPGLSPQLLIYLGSNRASGVPDRFSGSGSGTDFTLKISRVEAEDVGVYYCMQALQTPTFGGGTKVEIK | binds
9 | 35E11 (antibody, V domains shown) VH: QVQLVQSGAEVRKPGASVKVSCKASGYTFTDYAIHWVRQAPGQRLEWMGWIIVGNGKTRYAQKLQGRVTITWETSASTAYMDLTSLRSEDTAVYYCARGFTMVRGAPYYDGLDVWGQGTTVTVSS VL: DIVMTQSPLSLPVTPGEPASISCRSSQSLLYSTGYNYLDWYLQKPGLSPHLLIYLGSNRASGVPDRFSGSGSGTDFTLKISRVEAEDVGVYYCMQALQTPTFGGGTKVEIK | binds
10 | 25C01 (antibody, V domains shown, Detected with anti-human IgG) VH: EVHLVESGGGLVQPGGSLRLSCSASRFTFSTSAMTWVRQAPGKGLEWVSVISASGTTTYYGDSVKGRFTISRDNSKNTLHLQMNSLRAEDTAVYYCAKGGLAVPGPNYWGQGTLVTVSS VL: DVVMTQSPLSLPVTLGQPASISCRSSQSLVFSDGNTYLTWFQQRPGQSPRRLIYKVSDRDSGVPDRFSGSGSGTDFTLQISRVEAEDVGLYYCMQGSHWPLTFGGGTKVEIK | binds
11 | 27A03 (antibody, V domains shown) VH: EVQLVESGGGLVKPGGSLRLSCAASGFTFSTYSMNWVRQAPGKGLEWVSSISRSSSYIYYADSVKGRFTISRDNAKNSLSLQMNSLRAEDTAVYYCARGAAAGTDYWGQGTLVTVSS VL: not shown | no binding (tested: undiluted, concentration not given)
12 | 32A07 (antibody, V domains shown) VH: QVQLVQSGPEVRNPGASVRVSCKASGYTFTDYALHWVRQAPGQRLEWMGWIIVGNGKTRYAQKFQGRVTITWETSASTAFMDLSSLRSEDTAVYYCARGFTMVRGAPYYDGLDVWGQGTTVTISS VL: DIVMTQSPLSLPVTLGQPASISCRSSQSLIYSDGNTYLNWFQQRPGQSPRRLIYKVSNRDSGVPDRFSGSGSGTDFTLKISRVEAEDVGVYYCLQGTLWPITFGQGTRLEIK | no binding (tested: undiluted, concentration not given)
13 | 32E01 (antibody, V domains shown) VH: QVQLVQSGAEVRKPGASVKVSCKASGYTFTDYAIHWVRQAPGQRLEWMGWIIVGNGKTRYSQKFQGRVTITWETSASTAYMDLSSLRSEDTAVYYCARGFTMVRGAPYYDGMDVWGQGTTVTVSS VL: not shown | no binding (tested: undiluted, concentration not given)
14 | 35A10 (antibody, V domains shown) VH: EVQLVESGGGLVKPGGSLRLSCAASGFTFSTYSMNWVRQAPGKGLEWVSSISRSSSYIYYADSVKGRFTISRDNAKNSLSLQMNSLRAEDTAVYYCARGAAAGTDYWGQGTLVTVSS VL: DIVMTQSPLSLPVTLGQPASISCRSSQSLIYSDGNTYLNWFQQRPGQSPRRLIYKVSNRDSGVPDRFSGSGSGTDFTLKISRVEAEDVGVYYCLQGTLWPITFGQGTRLEIK | no binding (tested: undiluted, concentration not given)
15 | 30G01 (antibody, V domains shown) VH: QVQLQESGPGLVKPSGTLSLTCAVSGGSISSSNWWSWVRQPPGKGLEWIGEIYHSGNTNYNPSLKSRVTISVDKSKNQFSLKLSSVTAADTAVYYCVRGYYYDSGTSWGYYYGMDVWGQGTTVTVSS VL: DIQMTQSPSSLSASVGDRVTITCRASQGISNYLAWFQQRPGRAPKSLIYAASSLQRGVPSKFSGSGSGTDFTLTISSLQPEDFATYYCQQYNSYPITFGQGTRLEIK | no binding (tested: undiluted, concentration not given)
